{"source": "patent US10295537B2", "about": "“Biorecognition elements for rapid detection of biocontamination” (The United States of America, as represented by the …, priority 2017, dated 2019)", "key": {"[1]": {"molecular_target": "biotinylated bovine serum albumin (BSA) (Bos taurus, UniProt P02769)", "sequence (P02769 25-607)": "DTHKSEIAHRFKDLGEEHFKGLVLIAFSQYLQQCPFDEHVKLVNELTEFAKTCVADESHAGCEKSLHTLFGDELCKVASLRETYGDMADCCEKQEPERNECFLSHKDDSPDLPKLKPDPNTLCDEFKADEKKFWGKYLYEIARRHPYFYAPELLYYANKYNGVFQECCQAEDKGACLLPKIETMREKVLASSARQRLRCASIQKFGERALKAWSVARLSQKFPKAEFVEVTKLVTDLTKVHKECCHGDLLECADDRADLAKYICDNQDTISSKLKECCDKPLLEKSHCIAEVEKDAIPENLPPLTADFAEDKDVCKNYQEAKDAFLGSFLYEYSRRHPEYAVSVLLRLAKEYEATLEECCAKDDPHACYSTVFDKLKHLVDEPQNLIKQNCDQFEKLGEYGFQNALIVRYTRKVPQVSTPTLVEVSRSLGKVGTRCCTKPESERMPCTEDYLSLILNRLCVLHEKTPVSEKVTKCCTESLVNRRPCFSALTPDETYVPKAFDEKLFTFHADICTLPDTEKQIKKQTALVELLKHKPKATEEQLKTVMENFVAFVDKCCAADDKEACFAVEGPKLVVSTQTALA", "assay": "Biopanning against biotinylated BSA to identify target-unrelated peptides", "type": "binding", "details": "phage displaying the peptide, round 3", "from_the_text": "The phage library was then screened to identify target-unrelated peptides by using biotinylated bovine serum albumin (“BSA”) as a target for biopanning."}, "OprF1": {"molecular_target": "T1, OprF1 (Pseudomonas aeruginosa, UniProt P13794)", "T1 sequence (P13794 whole entry, looked up)": "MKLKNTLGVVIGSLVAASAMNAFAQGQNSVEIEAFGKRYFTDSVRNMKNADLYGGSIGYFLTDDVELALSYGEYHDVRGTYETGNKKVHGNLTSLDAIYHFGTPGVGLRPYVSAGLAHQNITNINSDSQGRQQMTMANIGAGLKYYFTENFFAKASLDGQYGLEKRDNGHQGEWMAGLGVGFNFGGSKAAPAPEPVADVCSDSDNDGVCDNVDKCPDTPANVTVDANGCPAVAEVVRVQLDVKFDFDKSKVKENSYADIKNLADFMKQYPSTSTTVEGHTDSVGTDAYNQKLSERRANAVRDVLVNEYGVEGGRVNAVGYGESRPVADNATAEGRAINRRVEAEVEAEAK", "assay": "Solution-phase biopanning of Ph.D.-7 phage library against OprF1 with amplification, physiological conditions, clone abundance", "type": "binding, P. aeruginosa", "details": "four rounds with amplification, physiological conditions (pH 7)", "from_the_text": "Biotinylated at its N-terminal, an OprF1 synthetic peptide was used for solution biopanning screening of a commercially-available M13 bacteriophage library displaying heptameric peptides at the N-terminal of P3 coat protein. Solution-phase biopanning provided the benefit of including the availability of all the OprF1 aa residues for interaction with the potential peptide binder with lessened likelihood of isolating unspecific peptides that might bind to the capture element used to purify the phage-antigen complex (i.e., magnetic or protein G beads).\nGenerally, solution-phase biopanning was carried out as described by the manufacturer (New England Biolabs, Ipswich, Mass.) with some modifications, including the changing of pH from 7.0 to 5.5 and 8.5 and adding 1% v/v of Jet A fuel. The first round of selection was carried out by diluting Ph.D.-7 bacteriophage library 100-fold in 0.1% Tris buffer saline plus Tween 20 (0.1% TBST) at the appropriate pH for selection plus fuel. Subsequently, the phage library was incubated with 1 μg of N-terminal biotinylated target protein fragment (OprF1: […] (SEQ. ID No. 1), OprF2: ADIKNLADFMK QYPSTSTT (SEQ. ID No. 2), Opr86: […] STP (SEQ. ID No. 3)) for 1 hr at 25° C. […] Titer of the amplified phage (more than 10^10 pfu/mL) was determined by infection into E. coli ER2738 and subsequent growth in selective medium containing X gal/IPTG. […]"}, "biotinylated OprF1": {"molecular_target": "T2, biotinylated OprF1 (Pseudomonas aeruginosa, UniProt P13794)", "T2 construct": "Biotinylated at its N-terminal, an OprF1 synthetic peptide was used for solution biopanning screening", "T2 sequence (P13794 whole entry, looked up)": "T1 sequence (P13794 whole entry, looked up)", "assay": "Unamplified competitive solution biopanning of 14 monoclonal phages against biotinylated OprF1; percent abundance among 30 clones as relative affinity", "type": "binding, P. aeruginosa", "details": "Bushnell-Haas pH 8.5 with 1% v/v Jet-A, 30 randomly selected clones"}}, "data": [{"substance": "PPKINIM (Artificial sequence obtained through biopanning.) [target-unrelated, cross-reacts with BSA]", "values": [{"measurement": "cross-reaction with BSA", "setting": "[1]", "result": "cross-react with BSA"}, {"measurement": "abundance based on round 4 clones", "setting": "OprF1", "result": 80, "unit": "%"}, {"measurement": "% Abundance", "setting": "biotinylated OprF1", "result": 3, "unit": "%"}]}]}
